Measured values published in the supplement of paper PMC10567573.

B1: LARP4 (parent)
chain: WTVANMEEIKKLTTDPDLILEVLR

Variants of: B1
Test: protein stability index of a GFP-peptide fusion (GPS, HEK-293T) (PSI 1-6); higher = more stable
Settings: c terminus: a fixed tail appended
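Further: lentivirally expressed fusions sorted by FACS into six bins by GFP to DsRed ratio, PSI derived from sequencing read proportions per bin multiplied by bin number.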

In order of rising protein stability index:
1. WYVANMEEIKKLTTDPDLILEVLR  1.05
2. WTVANMEEIKKLTTDPDLILEVLL  1.12
3. WIVANMEEIKKLTTDPDLILEVLR  1.14
4. WTVWNMEEIKKLTTDPDLILEVLR  1.21
5. WTRANMEEIKKLTTDPDLILEVLR  1.24
6. WTVANMEEIKKLTTDWDLILEVLR  1.43
7. WTVVNMEEIKKLTTDPDLILEVLR  1.43
8. WTVANMEEIKKLTTDPDLILEVLM  1.47
9. WTVMNMEEIKKLTTDPDLILEVLR  1.5
10. WTVYNMEEIKKLTTDPDLILEVLR  1.5
11. WTVANMEEIKKLTTDPDLILEVLY  1.57
12. WTVANMEEIKKLTTDPDLILHVLR  1.58
13. WTVANMEEIKKLTTDHDLILEVLR  1.63
14. WTVANMEEIKKLTTDPDLILFVLR  1.63
15. WVVANMEEIKKLTTDPDLILEVLR  1.7
16. WTVANMEETKKLTTDPDLILEVLR  1.71
17. WTVANMEEIKKLTTDCDLILEVLR  1.75
18. WTVANMEEIKKLTWDPDLILEVLR  1.75
19. WTVANMEEIKKLTTDPDLILEVLH  1.75
20. WTVANMEEIKKLTCDPDLILEVLR  1.77
21. WTVANMEEIKKLRTDPDLILEVLR  1.82
22. WTVANMEESKKLTTDPDLILEVLR  1.85
23. WTVANMEEIKKLTTDPDLILIVLR  1.85
24. WTVANMEEFKKLTTDPDLILEVLR  1.87
25. WKVANMEEIKKLTTDPDLILEVLR  1.87
26. WTVSNMEEIKKLTTDPDLILEVLR  1.9
27. WTVLNMEEIKKLTTDPDLILEVLR  1.9
28. WTVANMEEIKKLTTDPDLILEMLR  1.91
29. WTPANMEEIKKLTTDPDLILEVLR  1.92
30. WTVANMEENKKLTTDPDLILEVLR  1.93
31. WTVHNMEEIKKLTTDPDLILEVLR  1.93
32. WFVANMEEIKKLTTDPDLILEVLR  1.94
33. WTVANMEEIKKLHTDPDLILEVLR  1.97
34. WTVANMEEIPKLTTDPDLILEVLR  2
35. WTVANMEEIYKLTTDPDLILEVLR  2.03
36. WTVANMEEIKKLTTDPDLILAVLR  2.1
37. WTVANMEEIKKLTTDPDLILEVMR  2.12
38. WTVANMEEIKKLTTDPDLILYVLR  2.12
39. WTVANMEEINKLTTDPDLILEVLR  2.13
40. WTVANMEEIKKLTTDPDLILEILR  2.14
41. WTVANMEEIKKLTTDPDLILEVLI  2.14
42. WTVANMEEIKKLTTDLDLILEVLR  2.21
43. WTVANMEEIKKLGTDPDLILEVLR  2.23
44. WTVANMEEIKKLPTDPDLILEVLR  2.24
45. WTVANMEEIKKLTTDPDLILETLR  2.25
46. WTVANMEEIKKPTTDPDLILEVLR  2.26
47. WTVANMEECKKLTTDPDLILEVLR  2.27
48. WTVANMEEIKKLTTDPDLILEVLS  2.27
49. WTVANMEEIKKLTTDSDLILEVLR  2.28
50. WGVANMEEIKKLTTDPDLILEVLR  2.28
51. WTVANMEEMKKLTTDPDLILEVLR  2.3
52. WTVENMEEIKKLTTDPDLILEVLR  2.3
53. WTVANMEEIKKLTTDPDLILEVLC  2.3
54. WTVANMEEIKKLTTDPDLILEWLR  2.33
55. WTVANMEEIKKLTTDPDLILELLR  2.34
56. WTVANMEEIKKLTTDPDLILKVLR  2.36
57. WTVANMEEIKKLTTDDDLILEVLR  2.38
58. WTVANMEEIKKLTTDPDLILEVLQ  2.38
59. WTVANMEEIKKLTEDPDLILEVLR  2.44
60. WTVRNMEEIKKLTTDPDLILEVLR  2.45
61. WTVANMEEIKKLTTDPDLILEVFR  2.46
62. WTVANMEEIKKLTTDPDLILEGLR  2.48
63. WTVANMEEIDKLTTDPDLILEVLR  2.49
64. WTVANMEEPKKLTTDPDLILEVLR  2.49
65. WTVANMEERKKLTTDPDLILEVLR  2.5
66. WTVANMEEIKKLTTDPDLILEVLE  2.53
67. WTVANMEEIKKLDTDPDLILEVLR  2.56
68. WTVANMEEIKKLTQDPDLILEVLR  2.59
69. WTVANMEEIKKGTTDPDLILEVLR  2.6
70. WTVKNMEEIKKLTTDPDLILEVLR  2.6
71. WTQANMEEIKKLTTDPDLILEVLR  2.62
72. WTVANMEEIKKYTTDPDLILEVLR  2.62
73. WTVANMEEIKKLTTDPDLILEVQR  2.63
74. WTVANMEEIKKLTTDPDLILEVIR  2.65
75. WTVANMEEIKKLTTDPDLILEVLG  2.65
76. WTVANMEEIWKLTTDPDLILEVLR  2.68
77. WTVANMEEVKKLTTDPDLILEVLR  2.72
78. WTVANMEEIKKLTTDPDLILEFLR  2.77
79. WEVANMEEIKKLTTDPDLILEVLR  2.8
80. WTVANMEEIKKLTTDPDLILECLR  2.86
81. WTVANMEEIQKLTTDPDLILEVLR  2.88
82. WTVANMEEIKKSTTDPDLILEVLR  2.97
83. WTVANMEEIKKLTTDPDLILEVYR  3.06
84. WTVANMEEIKKNTTDPDLILEVLR  3.08
85. WTAANMEEIKKLTTDPDLILEVLR  3.11
86. WTVANMEEIKKHTTDPDLILEVLR  3.11
87. WTVANMEEIKKCTTDPDLILEVLR  3.11
88. WPVANMEEIKKLTTDPDLILEVLR  3.13
89. WTVANMEEIKKLTTDPDLILEVCR  3.17
90. WTVANMEEIKKLTTDPDLILEQLR  3.18
91. WTVANMEEIKKLTTDPDLILEVSR  3.27
92. WTVANMEEIKKDTTDPDLILEVLR  3.37
93. WTVANMEEIKKLTTDPDLILEHLR  3.48
94. WTVANMEEIKKETTDPDLILEVLR  3.74
